Consider twelve molecules from publication PMC4754655 (2016).

Positions count from the first letter of the chain named.

B1: GEBT403 mature Fab (Fab, V domains shown)
VH: EVQLVQSGAEVKKPGSSVKVSCKASGYTFTDYYMHWVRQAPGQGLEWMGEINPKTGGTNYAQKFQGRVTMTRDTSTSTAYMELSSLRSEDTAIYSCARGGQRLIPLRRFYFYYWGQGVLVTVSS
VL: QSVLTQPPSVSGAPGQKVTISCTGSSSNIGGYDVHWYQQLPGMAPKLLIYDNNERPSGISDRFSGSKSGTSASLAITGLQTEDEADYYCQSYDSSMNAWVFGGGTRLTVL
B2: GEBT403 igL-reverted Fab (Fab, V domains shown)
VH: B1 VH with E1Q, I93V, S95Y
VL: B1 VL with G69A
B3: GEBT403, inferred germline (igL) reverted IgG (antibody, V domains shown)
VH: B1 VH with E1Q, I93V, S95Y
VL: B1 VL with G69A
B4: GEBT403, mature IgG (antibody, V domains shown)
VH: B1 VH
VL: B1 VL
B5: GEBT404, mature IgG (antibody, V domains shown)
VH: EVQLVESGGGLAKPGGSLRLSCAASGFTFSNYWMYWVRQAPGKGLEWISAINSAGSRTYYPDSVKGRFTISRENAKNTLYLQMDSLRAEDTAVYYCAKGRIAIFGLVITYFDYWGQGVLVTVSS
VL: DIQMTQSPSSLSASVGDRVTITCRASQGITNDLAWYQQKPGETPKLLIYDASSLQSGIPSRFSGSGSGTDFTLTISSLQPEDFATYYCQHYYSTPPTFGGGTKVEIK
B6: GEBT404, inferred germline (igL) reverted IgG (antibody, V domains shown)
VH: B5 VH with Y35H, R57S, P61A, S85G
VL: B5 VL with R24Q, D50E, P80S
B7: GEBT412, mature IgG (antibody, V domains shown)
VH: QVQLVESGGGLVQPGGSLRLACAASGFIFSNHGMHWVRQAPGKGLEWVAVIWYDGSEKYYADSVKDRFTISRDNSKNMLYLQMNNLKLVDTAVYYCARRGCTGSGCYLYYYGLDSWGQGVVVTVSS
VL: DIQMTQSPSSLSASVGDTVTITCRASQGISSHLNWFQQKPGKAPKLLIYAATTLQSGVPSRFSGSGSGTDFTLTISSLQPEDFATYYCLQHNFYPYSFGQGTKVEIK
B8: GEBT391, mature IgG (antibody, V domains shown)
VH: B7 VH with A21S, I28T, N31S, H32Y, Y53F, A61V, V89D, G112A
VL: B7 VL with H32Y
B9: GEBT412, inferred germline (igL) reverted IgG (antibody, V domains shown)
VH: B7 VH with A21S, I28T, N31S, H32Y, E57K, V89E
VL: B7 VL with H32Y, T52S, T53S, Q55E, D70E
B10: GEBT391, inferred germline (igL) reverted IgG (antibody, V domains shown)
VH: B7 VH with Q1E, A21S, I28T, N31S, H32Y, E57K, V89E, G112A
VL: B7 VL with H32Y, T52S, T53S, Q55E, D70E
B11: GEBT414, mature IgG (antibody, V domains shown)
VH: EVQLVQSGAEVKRPGESLRISCKTSGYSFTGSWISWVRQMPGKGLDWMGNIYPGDSDTRYNPSFQGHVTISADKSISTTYLQWSSLKASDTATYYCAKGGGITIFGLLHYPLDSWGQGVVVTVSS
VL: DIQMTQSPSSLSASVGDTVTITCRASQGINNWLAWYQQKPGKAPKLLIYKASSLQSGVPSRFSGSGSGTDFTLTISSLQSEDFATYYCQQYNSGPLTFGGGTKVEIK
B12: GEBT414, inferred germline (igL) reverted IgG (antibody, V domains shown)
VH: B11 VH with D46E, N50S
VL: DIQMTQSPASLSASVGDRVTITCQASQGISSWLAWYQQKPGKAPKLLLYKAPGLQSGVPSMFSGSGSGTEFTLTISSLQPEDFATYYCQQYNSGPLTFGGGTKVEIK

One test addresses T1, YU2 gp140-foldon trimer (HIV-1 isolate YU2 (clade B) | ). As to the kind of experiment: SPR.
By Kd is commonly meant the concentration at which binding is half-saturated. B1: binding was characterised by a dissociation constant (Kd) of 7 nM.

The target of the next test is T1, YU2 gp140-foldon trimer. Put plainly: BLI. For orientation: Biolayer interferometry detects binding as a change in optical thickness at a sensor tip.
The molecule B2 gave a Kd of 2 nM. In turn, B1 registered a Kd of 5 nM.

Another test deals with YU2 gp120, soluble monomer (HIV-1 isolate YU2 (clade B), UniProt P35961 32-498). Put plainly: BLI.
As for B3, the Kd is 11 nM. As to B4, the Kd was 13 nM. On the same count and under the same terms, for B5 the value was 43 nM; for B6, 56 nM. On the same count and under the same terms, with B7 the figure was 11 nM; with B8, 6 nM; with B9, 104 nM.

In turn, B10 showed a Kd of 118 nM. Molecule B11 had a Kd of 24 nM. For B12, binding was characterised by a dissociation constant (Kd) of 63 nM.
